One data set has as its system T1, RTD913 SMCC (synthetic).
T1 sequence 1: KRAHHNALERXRRDXIKDS
T1 sequence 2: KRRTHNXLERXRRNELKRS
Kind of data set: EMSA. The note with it: stable complex formation, somewhat unstable binding; text p911 gives ~50-100 nM.

The subject of data set [1] is T2, RTD84 (stapled sDBD) (synthetic).
T2 sequence 1: KRXHHNXLERKRRDHIKDS
T2 sequence 2: KRRTHNXLERXRRNELKRS
The data set can be described thus: EMSA. As to conditions: text p911 gives EC50 ~50-100 nM.

pEC50, pKd: −log10 of the molar value.

One may read the pEC50 as the EC50 on a negative log10 scale, so that one unit is a factor of ten. Read a low pEC50 as a large EC50. By pKd is commonly meant −log10 of the Kd, conventionally taken in molar units. Low values mean a large Kd, high ones a small Kd. As for “CACGTG (double strand) [E-box probe (E1)]”, the pEC50 in the data set with RTD913 SMCC (synthetic) was 7.70. In data set [1], this sequence had a pKd of 7.30.

The record behind these values is US20190135868.
